{"source": "patent US10793871B2", "about": "“Nucleic acid molecule encoding glei protein variant with increased phytic acid sensitivity and use thereof” (University-Industry Foundation, Yonsei University, priority 2015, dated 2020)", "molecules": {"B1": {"name": "LOS4-His: 6×-histidine-fused LOS4, Arabidopsis DEAD-box ATPase/RNA helicase, homolog of yeast Dbp5 (protein)", "chain": "MADTVEKVPTVVESSSSSTVEASNSAEKTEPTTEKKKWGDVEDDDDEEEAVSELNSLSIKEEEKPDSILEEPEDSNIKAVTSGDTPYTSASRFEDLNLSPELMKGLYVEMKFEKPSKIQAISLPMIMTPPHKHLIAQAHNGSGKTTCFVLGMLSRVDPTLREPQALCICPTRELANQNMEVLQKMGKFTGITAELAVPDSTRGAPAATRGAPVSAHVVIGTPGTLKKWMAFKRLGLNHLKILVFDEADHMLATDGFRDDSLKIMKDIGRVNPNFQVLLFSATFNETVKDFVARTVKDPNQLFVKREDLALDSVKQYKVVCPKEQNKIEVIKDQIMELGDIGQTIIFVKTKASAQKVHKALAEMGYDVTSVHGNLTESDRDKIVKEFKECLTQVLIATDVIARGFDQQRVNLVVNYNLPTKYETGEPDYEVYLHRVGRAGRFGRKGAVFNLLLDDGWDKEVMEKIEKYFEANVKEIKSWNSEEEYKSALKEAGLLDE"}, "B2": {"name": "MBP-Gle1C (IS1): MBP fusion of Arabidopsis Gle1C variant InsP6-Sensitive 1: mutation from A437 to K (protein)", "chain": "QEKARAEAQMLAKIRAEEEKKEVERKAAREVAEKEVADRKAAEQKLAEQKAVIESVTGSSATSNAQAGGNSIRAAESALILENHRLKKLEELETTNQSLKSRSNENFSSFEKHIGRVIRQISGTKDSVSGKINDIVKIFKDPRCPVSISIAAFAKKMVTTKEKPNPFACSYVIVYINSQFPQVMDILLAEFHKKCIYTVPKHIVNSQSAWDSDAYERLDSIMRLYGALVQTDIRVGNATNVHGIEHGWAWLARFLNKIPANRATATALNSFLQTAGFGLHQRYKSQFLKVVNVVREHFLQKLRAKKDTSDLLVIIAEITAYLDDRMYLKEPEGRAMKTTSTLSSELTAELNQPNYNQNYQRNDYRNYY"}, "B3": {"name": "MBP-Gle1C (ID): MBP fusion of Arabidopsis Gle1C variant InsP6-Dead: mutation from K436 to A (protein)", "chain": "B2 chain with K193A, K194A"}, "B4": {"name": "MBP-Gle1C (IS2): MBP fusion of Arabidopsis Gle1C variant InsP6-Sensitive 2: double mutations from E433 to K and from A437 to K (protein)", "chain": "B2 chain with E190K"}, "B5": {"name": "MBP-Gle1: maltose-binding protein (MBP)-fused full-length Arabidopsis Gle1 (protein)", "chain": "MGIVLEPPCPKSVDGISIDPEPNWNFESLVAEIASVEKKLNGFSMYPQPITNTTLRMGRRGGGFVMHVSEDEMESDEGEESDDEEEEEDHSQICTAGKRFACDELYLSDESDEEFDHEPEYMMNKLGLAESALYEVINDHQTEIKDDIRNQVSVVETEIMNEIETSLSAIARVEKYSETRKEVERKLDLQYQRKVAEALDTHLTAVQREHKIKSQIEERKIRSEEAQEEARRKERAHQEEKIRQEKARAEAQMLAKIRAEEEKKEVERKAAREVAEKEVADRKAAEQKLAEQKAVIESVTGSSATSNAQAGGNSIRAAESALILENHRLKKLEELETTNQSLKSRSNENFSSFEKHIGRVIRQISGTKDSVSGKINDIVKIFKDPRCPVSISIAAFAKKMVTTKEKPNPFACSYVIVYINSQFPQVMDILLAEFHKACIYTVPKHIVNSQSAWDSDAYERLDSIMRLYGALVQTDIRVGNATNVHGIEHGWAWLARFLNKIPANRATATALNSFLQTAGFGLHQRYKSQFLKVVNVVREHFLQKLRAKKDTSDLLVIIAEITAYLDDRMYLKEPEGRAMKTTSTLSSELTAELNQPNYNQNYQRNDYRNYY"}}, "key": {"[1]": {"test_system": "LOS4 ATPase", "experiment": "Steady-state ATPase assay of LOS4-His", "type": "biochemical, Arabidopsis thaliana", "settings": "for stimulation of LOS4 ATPase activity in the absence of InsP6: 1 μM LOS4-His, 2 mM ATP, 2 μM MBP-Gle1C or variant", "description": "A steady-state ATPase assay was performed as described by Alcázar-Román et al. (Inositol hexakisphosphate and Gle1 activate the DEAD-box protein Dbp5 for nuclear mRNA export. Nat. Cell Biol. 8: 711-716, 2006) with slight modifications. The ATPase assay was performed with a LOS4-His protein in a 96-well plate using a buffer containing 20 mM HEPES (pH 7.5), 150 mM NaCl, 3 mM MgCl2, 1 mM DTT, 2 mM ATP, 6 mM phosphoenolpyruvate, 1.2 mM NADH, 1 mg/ml BSA and 2% (v/v) pyruvate kinase/lactate dihydrogenase (Sigma-Aldrich) in a total volume of 100 μl. Polyadenylic acid was added at 50 μg/ml or different concentrations as described above. Absorbance at 340 nm was measured using a VersaMax absorbance microplate reader (Molecular Devices), and the data were analyzed using SoftMax Pro software (Molecular Devices).\nGle1 and Gle1C (aa residues 244-611) were cloned into a pMAL C2X vector (New England Biolabs) for MBP fusion, LOS4 was cloned into a pET-29a vector for His fusion. MBP-Gle1 and MBP-Gle1C proteins were expressed in a BL21 (DE3) strain, and LOS4-His proteins were expressed in a Rosseta (DE3) strain of Escherichia coli. Cells were grown at 37° C. to an A600 of 0.4, shifted to 16° C., and induced by 0.25 mM IPTG for 16 hours. The MBP- and His-fusion proteins were purified following the manufacturer's introductions using MBP Excellose (Bioprogen) and His60 Ni Superflow™ resin (Clontech), respectively."}, "[2]": {"biological_target": "6x-histidine-fused LOS4 (LOS4-His) (Arabidopsis) (UniProt Q93ZG7)"}, "[3]": {"biological_target": "6x-histidine-fused LOS4 (LOS4-His) (Arabidopsis) (UniProt Q93ZG7)", "remark": "listed apart in the source"}, "[4]": {"biological_target": "T1, LOS4 RNA helicase activity (Arabidopsis thaliana, UniProt Q93ZG7)", "T1 construct": "LOS4 was cloned into a pET-29a vector for His fusion; made in house; host or cells: Escherichia coli Rosetta (DE3) for LOS4-His; BL21 (DE3) for MBP-Gle1", "T1 sequence (Q93ZG7 1-496)": "B1 chain", "experiment": "In vitro nucleic acid-melting assay with hairpin-shaped molecular beacons", "type": "biochemical", "settings": "in the presence of ATP; LOS4-His:MBP-Gle1 1:1, 1:2, 1:4 or LOS4-His only", "description": "A nucleic acid-melting assay was performed as described by Kim et al. (Cold shock domain proteins and glycine-rich RNA-binding proteins from Arabidopsis thaliana can promote the cold adaptation process in Escherichia coli. Nucleic Acids Res. 35: 506-516, 2007) using 78-nucleotide-long, 9-bp-containing, hairpin-shaped molecular beacons conjugated with a fluorophore (tetramethylrhodamine) and a quencher (Dabcyl). Spectrofluorometry was performed using a fluorescence spectrophotometer (Hitachi F-2000) at an excitation wavelength of 555 nm and an emission wavelength of 575 nm."}, "[5]": {"biological_target": "T2, LOS4-His (Arabidopsis thaliana, UniProt Q93ZG7)", "T2 construct": "LOS4 was cloned into a pET-29a vector for His fusion; made in house; host or cells: Escherichia coli Rosetta (DE3) for LOS4-His; BL21 (DE3) for MBP-Gle1", "T2 sequence (Q93ZG7 1-496)": "B1 chain", "experiment": "In vitro pull-down assay", "type": "binding", "settings": "Coomassie blue staining of eluted proteins", "description": "MBP and MBP-Gle1 proteins immobilized on MBP Excellose (Bioprogen) were incubated with LOS4-His proteins for 2 hours at room temperature. Similarly, LOS4-His proteins immobilized on a His60 Ni Superflow™ resin (Clontech) were incubated with MBP or MBP-Gle1 for 2 hours at room temperature. After extensive washing of the resins, the bound proteins were eluted with 2× SDS sample buffer, and the eluted proteins were visualized by Coomassie blue staining."}}, "note": "Residue numbers refer to the chain shown, from its start.", "data": [{"molecule": "polyadenylic acid [RNA, reference compound]", "values": [{"measurement": "LOS4 ATPase activity", "setting": "[1]; LOS4-His 1 μM, ATP 2 mM, RNA 50 μg/ml only", "result": "moderately stimulated LOS4 ATPase activity"}]}, {"molecule": "MBP fusion protein of the carboxyl-terminal domain of Gle1 (MBP-Gle1C; amino acid residues 244-611)", "values": [{"measurement": "apparent kcat of LOS4-His ATPase", "setting": "[2]", "result": 0.565, "unit": "s⁻¹"}]}, {"molecule": "O=S(=O)(O)OC1C(OS(=O)(=O)O)C(OS(=O)(=O)O)C(OS(=O)(=O)O)C(OS(=O)(=O)O)C1OS(=O)(=O)O", "note": "(centres unmarked) [InsP6 analog, reference compound]", "values": [{"measurement": "further stimulation of LOS4 ATPase activity", "setting": "[1]; LOS4-His 1 μM, ATP 2 mM, RNA, MBP-Gle1 2 μM plus 10 μM InsP6 analog", "result": "did not do so"}]}, {"molecule": "MBP-Gle1C (ID)", "values": [{"measurement": "LOS4 ATPase activity in the absence of InsP6 (fold decrease)", "setting": "[3]", "result": 2}]}, {"molecule": "B1", "values": [{"measurement": "apparent kcat of LOS4-His", "setting": "[1]; LOS4-His (1 μM) alone, 0-2 mM ATP", "result": 0.267, "unit": "s⁻¹"}, {"measurement": "beacon fluorescence (LOS4 RNA helicase activity)", "setting": "[4]", "result": "did not increase the fluorescence of the beacons"}]}, {"molecule": "B2", "values": [{"measurement": "stimulation of LOS4 ATPase activity in the absence of InsP6", "setting": "[1]; RNA, no InsP6", "result": "activated LOS4 ATPase activity to similar degrees"}, {"measurement": "InsP6 concentration at which LOS4-stimulating activity increases above basal", "setting": "[1]; with RNA, InsP6 0-100 μM", "result": 100, "unit": "nM"}, {"measurement": "InsP6 concentration giving maximum LOS4-stimulating activity", "setting": "[1]; with RNA, InsP6 0-100 μM", "result": "~1", "unit": "µM"}]}, {"molecule": "B3", "values": [{"measurement": "stimulation of LOS4 ATPase activity in the absence of InsP6", "setting": "[1]; RNA, no InsP6", "result": "reduced abilities to stimulate LOS4"}, {"measurement": "decrease in LOS4-stimulating activity in the absence of InsP6", "setting": "[1]; K436A mutation vs MBP-Gle1C, no InsP6", "result": "> 2", "unit": "fold"}]}, {"molecule": "B4", "values": [{"measurement": "stimulation of LOS4 ATPase activity in the absence of InsP6", "setting": "[1]; RNA, no InsP6", "result": "reduced abilities to stimulate LOS4"}, {"measurement": "InsP6 concentration at which LOS4-stimulating activity increases above basal", "setting": "[1]; with RNA, InsP6 0-100 μM", "result": 1, "unit": "nM"}, {"measurement": "InsP6 concentration giving full stimulation of LOS4 ATPase activity", "setting": "[1]; with RNA, InsP6 0-100 μM", "result": 100, "unit": "nM"}]}, {"molecule": "B5", "values": [{"measurement": "induction of LOS4 ATPase activity", "setting": "[1]; LOS4-His 1 μM, ATP 2 mM, RNA 50 μg/ml and MBP-Gle1 (full length) 2 μM", "result": "threefold"}, {"measurement": "beacon fluorescence (LOS4 RNA helicase activity)", "setting": "[4]", "result": "significant increase in fluorescence in a concentration-dependent manner"}, {"measurement": "pull-down by nickel resin-bound LOS4-His", "setting": "[5]", "result": "could pull down MBP-Gle1"}]}]}
